Measurements published in publication PMC11252331.
Each block holds one substance with its values, some of them ahead of it.

Assays:
[1] = molecular target: untagged ∆N∆PDZ HTRA1 R274Q used for NMR DOSY (human) (UniProt Q92743); experiment: NMR DOSY; 100 µM HTRA1 alone, 50 mM potassium phosphate pH 6.7, 10% D2O, 25 °C
ΔN HTRA1 A252T (human) [2] = molecular target: ΔN HTRA1 A252T (human) (UniProt Q92743); experiment: SEC-MALS; Superdex 200 Increase 10/300, 2x PBS, 56 µl of 10 mg/ml protein (273 µM monomer equivalent; A173T 6.5 mg/ml, 178 µM); single proteins or D174R-S328A + R274Q mixed at a 1:1 ratio
ΔN HTRA1 A252T (human) [3] = molecular target: ΔN HTRA1 A252T (human) (UniProt Q92743); experiment: SEC; analytical SEC, Agilent AdvanceBio SEC 300 Å column, 2x PBS, 10 µl of 10 mg/ml protein (273 µM monomer equivalent; A173T 6.5 mg/ml, 178 µM); single proteins or mixtures
ΔN HTRA1 A252T (human) [4] = molecular target: ΔN HTRA1 A252T (human) (UniProt Q92743); experiment: cross-linking; 0.5 µM HTRA1, 50 mM NaPi, 50 mM NaCl pH 8.0, 37 °C, 0.5% glutaraldehyde 2 min; silver staining or Western blot; single proteins or mixtures
[5] = molecular target: ΔN HTRA1 D174R-S328A (proteolytically inactive corrector variant) (human) (UniProt Q92743); experiment: SEC-MALS; Superdex 200 Increase 10/300, 2x PBS, 56 µl of 10 mg/ml protein (273 µM monomer equivalent; A173T 6.5 mg/ml, 178 µM); single proteins or D174R-S328A + R274Q mixed at a 1:1 ratio
[6] = molecular target: ΔN HTRA1 wild type (human HTRA1 lacking the N-terminal IGFBP7-like fragment) (human) (UniProt Q92743); experiment: as above
[7] = molecular target: ΔN HTRA1 wild type (human HTRA1 lacking the N-terminal IGFBP7-like fragment) (human) (UniProt Q92743); experiment: SEC; analytical SEC, Agilent AdvanceBio SEC 300 Å column, 2x PBS, 10 µl of 10 mg/ml protein (273 µM monomer equivalent; A173T 6.5 mg/ml, 178 µM); single proteins or mixtures
[8] = molecular target: ΔN HTRA1 wild type (human HTRA1 lacking the N-terminal IGFBP7-like fragment) (human) (UniProt Q92743); experiment: native MS; binding experiments, 5 µM protein with VDAC2 peptide added at molar ratios, 200 mM ammonium acetate pH 6.8
[9] = molecular target: ΔN HTRA1 wild type (human HTRA1 lacking the N-terminal IGFBP7-like fragment) (human) (UniProt Q92743); experiment: cross-linking; 0.5 µM HTRA1, 50 mM NaPi, 50 mM NaCl pH 8.0, 37 °C, 0.5% glutaraldehyde 2 min; silver staining or Western blot; single proteins or mixtures
[10] = molecular target: VDAC2 peptide (C-terminus of Voltage Dependent Anion-selective Channel isoform 2); experiment: VDAC2 titration of cleavage rate of peptidic fluorescence-quenched substrate, fitted to the hyperbolic weak-binding equation; details: substrate 2 µM; HTRA1 wt 30 nM; R274Q 300 nM

stoichiometry N [1]: 3
Substance: untagged ∆N∆PDZ HTRA1 R274Q used for NMR DOSY (from UniProt Q92743 158-375) (domain or fragment)

stoichiometry N (ΔN HTRA1 A252T (human) [2]): 3
stoichiometry N (ΔN HTRA1 A252T (human) [3]): 3
stoichiometry N (ΔN HTRA1 A252T (human) [4]): 3
Substance: ΔN HTRA1 A252T (from UniProt Q92743 158-480) (domain or fragment)

stoichiometry N [5]: 3
Substance: ΔN HTRA1 D174R-S328A (proteolytically inactive corrector variant) (from UniProt Q92743 158-480) (domain or fragment)

stoichiometry N [6]: 3
stoichiometry N [7]: 3
stoichiometry N [8]: 3
stoichiometry N [9]: 3
Substance: ΔN HTRA1 wild type (human HTRA1 lacking the N-terminal IGFBP7-like fragment) (from UniProt Q92743 158-480) (domain or fragment)

Kd [10]: 12.1 µM
Substance: ΔN HTRA1 wild type (human HTRA1 lacking the N-terminal IGFBP7-like fragment) (from UniProt Q92743) R274Q
